How the values were obtained:
[1] = target: T1, rabbit Fc-tagged recombinant extracellular human ICOS (human, UniProt Q9Y6W8 21-140); assay: SPR (Biacore), compared with human ICOS-L binding to dimeric human ICOS (FIG. 15B)
T1 construct: also called dimeric human ICOS; not shown: rabbit Fc tag
T1 sequence: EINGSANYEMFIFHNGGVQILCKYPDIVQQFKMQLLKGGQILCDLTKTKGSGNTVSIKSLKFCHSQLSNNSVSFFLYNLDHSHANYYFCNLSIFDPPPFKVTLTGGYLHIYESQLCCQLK

[2] = target: T2, human ICOS ligand (B7-H2) (human, UniProt O75144 19-258, limits assumed); assay: flow cytometry competition: activated T cells pre-incubated with recombinant ICOS-L (B7-H2), then stained with H2L5; CD8+ cells
T2 construct: it is treated as the same molecule; also called CD275; recombinant ICOS-L (R&D Systems)
T2 sequence (looked up): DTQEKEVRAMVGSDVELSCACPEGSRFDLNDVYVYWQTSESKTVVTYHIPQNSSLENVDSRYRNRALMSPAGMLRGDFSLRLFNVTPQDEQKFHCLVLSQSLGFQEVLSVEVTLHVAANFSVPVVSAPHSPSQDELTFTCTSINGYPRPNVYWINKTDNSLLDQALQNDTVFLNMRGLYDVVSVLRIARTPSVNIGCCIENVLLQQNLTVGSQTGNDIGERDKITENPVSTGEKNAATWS

Row | Binder | fold higher affinity than the ICOS-L/ICOS interaction [1] [fold] | binding result [2]
1 | H2L5 IgG4PE (antibody, V domains shown, Human IgG4 with Fc mutations S228P and L235E (EU numbering), called IgG4PE; humanized variant of murine clone 422.2; also called ICOS IgG4PE; H2L5 (ICOS) IgG4PE) VH: QVQLVQSGAEVKKPGSSVKVSCKASGYTFTDYAMHWVRQAPGQGLEWMGLISIYSDHTNYNQKFQGRVTITADKSTSTAYMELSSLRSEDTAVYYCGRNNYGNYGWYFDVWGQGTTVTVSS VL: EIVLTQSPATLSLSPGERATLSCSASSSVSYMHWYQQKPGQAPRLLIYDTSKLASGIPARFSGSGSGTDYTLTISSLEPEDFAVYYCFQGSGYPYTFGQGTKLEIK | ~17 | 
2 | human ICOS on activated human T cells (receptor, the isoform 1 entry is named; also called cell surface ICOS; ICOS+ T cells (CD4, CD8, Treg)) EINGSANYEMFIFHNGGVQILCKYPDIVQQFKMQLLKGGQILCDLTKTKGSGNTVSIKSLKFCHSQLSNNSVSFFLYNLDHSHANYYFCNLSIFDPPPFKVTLTGGYLHIYESQLCCQLKFWLPIGCAAFVVVCILGCILICWLTKKKYSSSVHDPNGEYMFMRAVNTAKKSRLTDVTL |  | binds

Reference: patent publication US20200190194A1 (GlaxoSmithKline, published 2020)
